pKd: −log10 of the molar value. Like-named read-outs stand apart in the source and are kept apart here.
Assays:
[1] = target: SARS-CoV-2 spike glycoprotein subunit 1 (S1) (SARS-CoV-2) (UniProt P0DTC2); experiment: BLI
TNF-alpha = TNF-alpha (UniProt P01375); experiment: BLI; details: SEQ 37 part DNA primer, selected region TNA 3'-2', 24 C, 2 mM CaCl2
[2] = SEQ 37 part DNA primer, selected region TNA 3'-2', all T = C5-benzyl carboxamide U (UPhe)
[3] = SEQ 37 part DNA primer, selected region TNA 3'-2', all T = C5-indole carboxamide U (UTrp)
[4] = all T = C5-benzyl carboxamide U (UPhe)
[5] = all T = C5-indole carboxamide U (UTrp)

Sequence of TNF-alpha (P01375 77-233): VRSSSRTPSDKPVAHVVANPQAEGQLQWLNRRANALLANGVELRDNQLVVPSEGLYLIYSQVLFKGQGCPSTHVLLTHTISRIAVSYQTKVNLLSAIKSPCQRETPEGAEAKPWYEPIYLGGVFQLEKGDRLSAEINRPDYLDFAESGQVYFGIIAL

GTCCCCTTGGGGATACCACCTGGCGAGGGGTAGTGAGCTGACGGATAGGGCTAGTGGAAC [S1 standard entry 1]
pKd ([1]; SEQ 37 part DNA primer, selected region alpha-L-threofuranosyl (TNA) 3'-2', natural bases): 7.75

GTCCCCTTGGGGATACCACCGAGAGTCATAGTAGTTCACGGGTCTGCAGCTTACGCATGT [S1 Phe entry 6]
pKd [1, 2]: 7.95

GTCCCCTTGGGGATACCACCCGTGCACGATCTAGCCAGTGCTCGCTTGAAATGGGCGCAG [S1 Standard-2]
pKd ([1]; SEQ 37 part DNA primer, selected region TNA 3'-2', natural bases): 7.47

GTCCCCTTGGGGATACCACCCGTACAACTCCGGTTTCGGGCGGCCCGTTCTTCAGTTTGA [S1 Trp entry 18]
pKd [1, 3]: 8.57

GTCCCCTTGGGGATACCACCCTTAGGTCGGCCTTTGACCATTCGTGCAAAACTTAGCGAA [TNF Phe entry 6]
pKd (TNF-alpha; [4]): 7.39

GTCCCCTTGGGGATACCACCCGCGGCGTTGCGTAGCGCCAATCCTGCACAGAGGCGGGCG [TNF standard entry 3]
pKd (TNF-alpha; natural bases, R2 0.88): 6.85

GTCCCCTTGGGGATACCACCTATTGGAACTCCCGAGCAGGCTGTCCCATGGAAGACTACA [S1 Phe entry 3]
pKd [1, 2]: 8.59

GTCCCCTTGGGGATACCACCGACGCTATGACTGGTATGGTGTGTGAGCTTCGAGGTCTGA [TNF Standard-2]
pKd (TNF-alpha; natural bases, three replicates 109, 76, 62 nM, approximate, poor curve fit): 7.09

GTCCCCTTGGGGATACCACCTAAGGAAAGGGGAGCGGGTAGGAGGTTCGTCGGGTGCGAC [S1 Trp entry 19]
pKd [1, 3]: 8.38

GTCCCCTTGGGGATACCACCGGCACTATCGATTATCGTGCGCATTGGTTGTGTCCAGGCT [TNF Trp entry 10]
pKd (TNF-alpha; [5]): 8.14

GTCCCCTTGGGGATACCACCACGAGTAGGCCGCATTATGATGATTTAAACTGTTTCATGC [TNF Trp-3]
pKd (TNF-alpha; all T = C5-indole carboxamide U (UTrp), three replicates 16, 17, 27 nM): 7.70

GTCCCCTTGGGGATACCACCGGTGTAATAAGGAGAGTACGTCGTTTGGTGGGACCGGGTA [S1 Phe entry 15]
pKd [1, 2]: 7.41

GTCCCCTTGGGGATACCACCATTGTGCGAAGTATACATAGCAGATGCGTGACATAACAAG [S1 Trp entry 20]
pKd [1, 3]: 8.29

GTCCCCTTGGGGATACCACCGCGGCCAGATCCCCGATATGTTAACGTCCTTTTATGCGGG [TNA 913]
pKd ([1]; SEQ 37 part DNA primer, selected region TNA 3'-2', all T = C5-indole carboxamide U (UTrp; from doped Trp-1 library)): 9.07

GTCCCCTTGGGGATACCACCTCACGTCTGTTGTACACTTGTGCAATGCAAGGACGGAAAA [TNF Trp entry 11]
pKd (TNF-alpha; [5]): 7.92

GTCCCCTTGGGGATACCACCATCGAGTTGTGACGTTAACGATAATAGCCCGCTCCGATTC [S1 Phe entry 13]
pKd [1, 2]: 7.51

GTCCCCTTGGGGATACCACCTGACACCTGGCACGAATGCGCAGACGACGTTGTTTTGCGT [TNF Phe entry 4]
pKd (TNF-alpha; [4]): 7.72

GTCCCCTTGGGGATACCACCTTAATTTTGAGATCTTTGTCGAGTTGCTCGGTGAAAAGTC [TNF Phe entry 8]
pKd (TNF-alpha; [4]): 7.15

GTCCCCTTGGGGATACCACCGAATGCGCTTGAGCGCGCCCGATGATATAGCGAACCAAGC [TNF Phe entry 7]
pKd (TNF-alpha; [4]): 7.27

GTCCCCTTGGGGATACCACCTGTACGCCATATAGGCAGTCATCGAGCAACGAAGTAATGG [S1 Phe entry 9]
pKd [1, 2]: 7.78

GTCCCCTTGGGGATACCACCAGAACTTCGTCAGCGTCTTACCGAGTCCAAGGACTGGCTA [S1 Phe entry 12]
pKd [1, 2]: 7.54

GTCCCCTTGGGGATACCACCAAACTGTTGGGACTTGTAATGTCGTCATCAGCTAAGAGTC [S1 Trp entry 22]
pKd [1, 3]: 7.68

GTCCCCTTGGGGATACCACCGCGGGGGGTGTTGTGTAACTGTTTTTTGCCGGAAAGACGC [TNF standard entry 1]
pKd (TNF-alpha; natural bases, R2 0.88): 7.38

GTCCCCTTGGGGATACCACCTACATTACGCGTTAGCGTTAATGGGTATGTCCGGACAGTG [S1 Phe entry 14]
pKd [1, 2]: 7.44

GTCCCCTTGGGGATACCACCAGAGCAAGTCATGATCGCGAGTTTAGCTTTTTCATTTCCC [TNF Phe entry 9]
pKd (TNF-alpha; [4]): 7.07

GTCCCCTTGGGGATACCACCACGATGGACTTGGGTAGCTAGTCAGGTTAGGCTGTTTGGA [S1 Phe entry 11]
pKd [1, 2]: 7.66

GTCCCCTTGGGGATACCACCACTTTTGCTTGAGATTCGGCGCATTTCGTGCAGTGATGTA [TNF Phe entry 5]
pKd (TNF-alpha; [4]): 7.57

GTCCCCTTGGGGATACCACCTTAGTATTATTATGGGTGCGTGAGTTTCCAAGAAGCGCGT [TNA 949]
pKd ([1]; SEQ 37 part DNA primer, selected region TNA 3'-2', threomer base modification (side chain not stated, probably UTrp)): 9.15

GTCCCCTTGGGGATACCACCTTGGCGAGATCCCCTATACGTGAGCTTCCTTTTATCCTTT [S1 Trp-1]
pKd [1]: 8.51

GTCCCCTTGGGGATACCACCAGGCTTATGAAATCTTATGTGAACCGGGCATACGGGCGAT [S1 Phe entry 4]
pKd [1, 2]: 8.28

GTCCCCTTGGGGATACCACCTTTCTATGCATCTCGGGGATGCGGGATATAAAAGAGAGAC [S1 Trp entry 23]
pKd [1, 3]: 7.54

— patent US20250092406
